Measurements published in US20090208994A1, “GENETIC INCORPORATION OF 3-AMINOTYROSINE INTO REDUCTASES” (THE SCRIPPS RESEARCH INSTITUTE, priority 2007, published 2009).
Each block holds one molecule with its values, some of them ahead of it.

How the values were obtained:
DH10B E. coli cells = assay: Toxicity of NH2Y: growth in liquid GMML medium and on agar plates; type: cell-based
Text: Toxicity and uptake of NH2Y. Evolution of an NH2Y-specific aminoacyl-tRNA synthetase (RS) requires that NH2Y is taken up by E. coli, that it is not toxic, and that it is not incorporated into proteins by any endogenous RSs. All three requirements were met by NH2Y. […] The presence of DTT however, caused cells to grow at a rate 25-35% more slowly than those in the presence of only NH2Y or absence of NH2Y/DTT.

[1] = pH 7; cited from earlier work
[2] = target: T1, E. coli ribonucleotide reductase (α2β2 complex) (Escherichia coli, UniProt P00452); conditions: previous studies; inactivation of wt α2β2 by N3ADP/dGTP; 20 s time scale; cited from earlier work
T1 construct: made in house; host or cells: E. coli DH10B for the NH2Y-α2s

wt β2, P69924 = target: T2, wt β2, P69924
T2 chain: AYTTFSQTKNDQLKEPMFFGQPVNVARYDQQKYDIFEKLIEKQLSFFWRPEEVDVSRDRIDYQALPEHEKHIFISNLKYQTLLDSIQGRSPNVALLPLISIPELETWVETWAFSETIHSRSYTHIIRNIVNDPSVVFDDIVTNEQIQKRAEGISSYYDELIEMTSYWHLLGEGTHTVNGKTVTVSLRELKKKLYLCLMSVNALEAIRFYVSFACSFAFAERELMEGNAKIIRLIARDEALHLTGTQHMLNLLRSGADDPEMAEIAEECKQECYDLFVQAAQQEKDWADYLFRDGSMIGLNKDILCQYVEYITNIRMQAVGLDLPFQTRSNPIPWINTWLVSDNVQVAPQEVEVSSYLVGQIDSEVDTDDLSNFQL

wt β2 (E. coli) = wt β2 (E. coli) (UniProt P69924); assay: cell-based or functional assay

Molecule: O[C@H](CS)[C@H](O)CS (racemic) [DTT, DL-dithiothreitol]
cells grow more slowly (rate) (DH10B E. coli cells; presence of DTT (0.1 mM) vs. only NH2Y or absence of NH2Y/DTT): 25-35%

Molecule: Nc1cc(C[C@H](N)C(=O)O)ccc1O [NH2Y, 3-aminotyrosine]
effect on growth rates (DH10B E. coli cells; NH2Y (1 mM) or NH2Y/DTT in GMML medium and agar plates): not significantly affected

Molecule: N[C@@H](Cc1ccc(O)c(O)c1)C(=O)O [DOPA, 3,4-dihydroxyphenylalanine]
reduction potential lower than that of Y [1]: 260 mV

Molecule: [N-]=[N+]=N[C@@H]1[C@H](O)[C@@H](COP(=O)(O)OP(=O)(O)O)O[C@H]1n1cnc2c(N)ncnc21 [N3ADP, 2′-Azido-2′-deoxyadenosine-5′-diphosphate]
initial Y122• lost (forming an equivalent amount of N•) [2]: 50-60%

B1: Y730NH2Y-α2 (protein)
chain: MNQNLLVTKRDGSTERINLDKIHRVLDWAAEGLHNVSISQVELRSHIQFYDGIKTSDIHETIIKAAADLISRDAPDYQYLAARLAIFHLRKKAYGQFEPPALYDHVVKMVEMGKYDNHLLEDYTEEEFKQMDTFIDHDRDMTFSYAAVKQLEGKYLVQNRVTGEIYESAQFLYILVAACLFSNYPRETRLQYVKRFYDAVSTFKISLPTPIMSGVRTPTRQFSSCVLIECGDSLDSINATSSAIVKYVSQRAGIGINAGRIRALGSPIRGGEAFHTGCIPFYKHFQTAVKSCSQGGVRGGAATLFYPMWHLEVESLLVLKNNRGVEGNRVRHMDYGVQINKLMYTRLLKGEDITLFSPSDVPGLYDAFFADQEEFERLYTKYEKDDSIRKQRVKAVELFSLMMQERASTGRIYIQNVDHCNTHSPFDPAIAPVRQSNLCLEIALPTKPLNDVNDENGEIALCTLSAFNLGAINNLDELEELAILAVRALDALLDYQDYPIPAAKRGAMGRRTLGIGVINFAYYLAKHGKRYSDGSANNLTHKTFEAIQYYLLKASNELAKEQGACPWFNETTYAKGILPIDTYKKDLDTIANEPLHYDWEALRESIKTHGLRNSTLSALMPSETSSQISNATNGIEPPRGYVSIKASKDGILRQVVPDYEHLHDAYELLWEMPGNDGYLQLVGIMQKFIDQSISANTNYDPSRFPSGKVPMQQLLKDLLTAYKFGVKTLYYQNTRDGAEDAQDDLVPSIQDDGCESGACKI
kobs / Ampl, 1st phase, without CDP/ATP (wt β2, P69924): No changes observed. | kobs / Ampl, 2nd phase, without CDP/ATP (wt β2, P69924): No changes observed. | rate constant of formation of NH2Y• at 325 nm (fast phase) (wt β2, P69924): 13.6 ± 0.1 s⁻¹ | rate constant of formation of NH2Y• at 325 nm (slow phase) (wt β2, P69924): 2.5 ± 0.1 s⁻¹ | rate constant of loss of Y122• at 410 nm (fast phase) (wt β2, P69924): 12.0 ± 0.1 s⁻¹ | rate constant of loss of Y122• at 410 nm (slow phase) (wt β2, P69924): 2.4 ± 0.1 s⁻¹ | kobs, 1st phase (stopped-flow UV-vis, Y122• loss / NH2Y730• formation, with CDP/ATP) (wt β2, P69924; in 1/s): 12.8 ± 0.8, 20 ± 1 | kobs, 2nd phase (stopped-flow UV-vis, Y122• loss / NH2Y730• formation, with CDP/ATP) (wt β2, P69924; in 1/s): 2.5 ± 0.1, 19 ± 1

Ampl, 1st phase (% of total initial Y122• trapped, with CDP/ATP) (wt β2 (E. coli)): 24% | Ampl, 2nd phase (% of total initial Y122• trapped, with CDP/ATP) (wt β2 (E. coli)): 11% | EPR spin quantitation at 10 s: share of remaining spin associated with NH2Y731•, with CDP/ATP (wt β2 (E. coli)): 45% | total initial Y122• consumed at 2 s (wt β2 (E. coli)): 35%
B2: Y731NH2Y-α2 (enzyme, E. coli, UniProt P00452 1-761, looked up)
chain: MNQNLLVTKRDGSTERINLDKIHRVLDWAAEGLHNVSISQVELRSHIQFYDGIKTSDIHETIIKAAADLISRDAPDYQYLAARLAIFHLRKKAYGQFEPPALYDHVVKMVEMGKYDNHLLEDYTEEEFKQMDTFIDHDRDMTFSYAAVKQLEGKYLVQNRVTGEIYESAQFLYILVAACLFSNYPRETRLQYVKRFYDAVSTFKISLPTPIMSGVRTPTRQFSSCVLIECGDSLDSINATSSAIVKYVSQRAGIGINAGRIRALGSPIRGGEAFHTGCIPFYKHFQTAVKSCSQGGVRGGAATLFYPMWHLEVESLLVLKNNRGVEGNRVRHMDYGVQINKLMYTRLLKGEDITLFSPSDVPGLYDAFFADQEEFERLYTKYEKDDSIRKQRVKAVELFSLMMQERASTGRIYIQNVDHCNTHSPFDPAIAPVRQSNLCLEIALPTKPLNDVNDENGEIALCTLSAFNLGAINNLDELEELAILAVRALDALLDYQDYPIPAAKRGAMGRRTLGIGVINFAYYLAKHGKRYSDGSANNLTHKTFEAIQYYLLKASNELAKEQGACPWFNETTYAKGILPIDTYKKDLDTIANEPLHYDWEALRESIKTHGLRNSTLSALMPSETSSQISNATNGIEPPRGYVSIKASKDGILRQVVPDYEHLHDAYELLWEMPGNDGYLQLVGIMQKFIDQSISANTNYDPSRFPSGKVPMQQLLKDLLTAYKFGVKTLYYQNTRDGAEDAQDDLVPSIQDDGCESGACKI
modifications: 3-aminotyrosine (NH2Y) in place of Tyr at 731 (E. coli RNR numbering)

Ampl, 1st phase (% of total initial Y122• trapped, with CDP/ATP) (wt β2 (E. coli)): 20% | Ampl, 2nd phase (% of total initial Y122• trapped, with CDP/ATP) (wt β2 (E. coli)): 19% | EPR spin quantitation at 10 s: share of remaining spin in the new signal (NH2Y730•), with CDP/ATP (wt β2 (E. coli)): 53% | total initial Y122• consumed at 2 s (wt β2 (E. coli)): 39%
B3: Y730NH2Y-α2 (enzyme, E. coli, UniProt P00452 1-761, looked up)
chain: MNQNLLVTKRDGSTERINLDKIHRVLDWAAEGLHNVSISQVELRSHIQFYDGIKTSDIHETIIKAAADLISRDAPDYQYLAARLAIFHLRKKAYGQFEPPALYDHVVKMVEMGKYDNHLLEDYTEEEFKQMDTFIDHDRDMTFSYAAVKQLEGKYLVQNRVTGEIYESAQFLYILVAACLFSNYPRETRLQYVKRFYDAVSTFKISLPTPIMSGVRTPTRQFSSCVLIECGDSLDSINATSSAIVKYVSQRAGIGINAGRIRALGSPIRGGEAFHTGCIPFYKHFQTAVKSCSQGGVRGGAATLFYPMWHLEVESLLVLKNNRGVEGNRVRHMDYGVQINKLMYTRLLKGEDITLFSPSDVPGLYDAFFADQEEFERLYTKYEKDDSIRKQRVKAVELFSLMMQERASTGRIYIQNVDHCNTHSPFDPAIAPVRQSNLCLEIALPTKPLNDVNDENGEIALCTLSAFNLGAINNLDELEELAILAVRALDALLDYQDYPIPAAKRGAMGRRTLGIGVINFAYYLAKHGKRYSDGSANNLTHKTFEAIQYYLLKASNELAKEQGACPWFNETTYAKGILPIDTYKKDLDTIANEPLHYDWEALRESIKTHGLRNSTLSALMPSETSSQISNATNGIEPPRGYVSIKASKDGILRQVVPDYEHLHDAYELLWEMPGNDGYLQLVGIMQKFIDQSISANTNYDPSRFPSGKVPMQQLLKDLLTAYKFGVKTLYYQNTRDGAEDAQDDLVPSIQDDGCESGACKI
modifications: 3-aminotyrosine (NH2Y) in place of Tyr at 730 (E. coli RNR numbering)
